Data set [1] is described as follows: Biotin-PGE2 ELISA (PGE2-biotinamide binding to captured IgG). Here is the method:
Enzyme linked immunosorbent assays to screen for antibodies that bind prostaglandin E2 were performed according to at least one of the two following methods.
ELISA plates (Costar 3369, Corning, N.Y.) were coated with 50 μl of anti-host Fc IgG (Sigma, St. Louis, Mo.) at 2 μg/ml in PBS (Invitrogen Carlsbad, Calif.). Following an overnight incubation at 4° C., washed with PBS and the plate was blocked with 200 μl Superblock (Pierce #37535, Rockford, Ill.). The IgG containing samples were diluted to 1 μg/ml in Assay Buffer (10% Superblock in PBS containing 0.05% Surfactamps (Pierce #37535, Rockford, Ill.) and 50 μl/well added to each well and incubated for 1 hour at room temperature. Plates were washed four times with Tween-Tris Buffered Solution (TTBS). […] The titration curve samples were added to each IgG sample at 50 μl/well and incubated for 1 hour at room temperature. The plates were washed as previously described and 50 μl of 1:5000 dilution of streptavidin polyhrp40 (Fitzgerald Industries, Concord, Mass.) in Assay Buffer was added to each well and incubated for 45 minutes at room temperature. A final wash step was performed and the plates were developed using a single step TMB system (Sigma #T8665, St. Louis, Mo.) and 100 μl/well 2N H2SO4. Plates were read at 450 nm on a Molecular Devices Spectramax plate reader (Sunnyvale, Calif.). EC50 was determined using GraphPad Prism 5 (GraphPad Software, La Jolla, Calif.).

A short description of data set [2]: Biotin-PGE2 competition ELISA (prostaglandin selectivity). It counts as binding. Here is the method: Competition enzyme linked immunosorbent assays were performed to determine prostaglandin binding specificity for antibodies that bind prostaglandin E2, according to at least one of the two following methods.
ELISA plates (Costar 3369, Corning, N.Y.) were coated with 50 μl/well of anti-host Fc IgG (Sigma, St. Louis, Mo.) at 2 μg/ml in PBS (Invitrogen, Carlsbad, Calif.). Following an overnight incubation at 4° C., the plate was blocked with 200 μl Superblock (Pierce #37535, Rockford, Ill.). The IgG samples were diluted to 6 μg/ml in Assay Buffer (10% Superblock in PBS containing 0.05% Surfactamps (Pierce #37535, Rockford, Ill.). The PGE2-biotinamide was diluted to 3 nM in Assay Buffer. A titration curve in Assay Buffer was prepared for the prostaglandins PGA2 (Cayman Chemicals, Ann Arbor, Mich.), PGD2 (Cayman Chemicals, Ann Arbor, Mich.) and PGE2 (Cayman Chemicals, Ann Arbor, Mich.) starting at 300 nM by a 1:10 serial dilution. The reagents were added to tubes at a volume of 50 μl each/tube and preincubated for 1 hour at room temperature. Following the preincubation, the mix was transferred to the blocked plates and allowed to incubate for 1 hour at room temperature. Next, the plates were washed four times with Tween 20-Tris buffered solution (TTBS). Streptavidin polyhrp40 in Assay Buffer (Fitzgerald Industries, Concord, Mass.) at a 1:5000 dilution was then added to the wells and incubated for 45 minutes at room temperature. A final wash step was performed and the plates were developed using a single step TMB system (Sigma #T8665, Sigma, St. Louis, Mo.) and 100 μl/well 2N H2SO4. Plates were read at 450 nm on a Molecular Devices Spectramax plate reader (Sunnyvale, Calif.). […] IC50 number was determined using GraphPad Prism 5 (GraphPad Software, La Jolla, Calif.). The cross reactivity index was then calculated by IC50 of PGE2/IC50 of other prostaglandin(s).

The nature of data set [3]: Capillary zone electrophoresis. The settings on record: running buffer pH 5.5; compared with Hu2B5.2, Hu2B5.4, Hu2B5.6, Hu2B5.8. It counts as physicochemical. An excerpt:
Capillary zone electrophoresis is a capillary electrophoresis method in which the capillary is filled with buffer and the separation mechanism is based on differences in electrophoretic mobility of the analyte through the buffer. The electrophoretic mobility of a molecule is related to the charge-to-size ratio. A Beckman-Coulter ProteomeLab PA 800 (Beckman Coulter, Fullerton, Calif.) was used for the CZE analysis. A neutral capillary (eCAP neutral, 56 cm total length, 50 μm I. D. Beckman-Coulter, P/N 477441, Fullerton, Calif.) was used. The method used a 30.2 cm capillary with a detection window 20.2 cm from the sample introduction inlet. The running buffer was 100 mM EACA (6-Aminocaproic acid, Sigma A7824-100 G, St. Louis, Mo.) with 0.1% MC (from 1% Methylcellulose solution, Convergent Bioscience, cat# 101876, Toronto, ON, Canada), pH 5.5.

Data set [4] is described as follows: Biotin-PGE2 ELISA (PGE2-biotinamide binding to captured IgG). This is another data set of the same source. For orientation: ELISA stands for enzyme-linked immunosorbent assay.
Data set [5] relates to PGE2 induced Ca++ influx in HEK293 Gα16 cells stably transfected with human EP4 receptor. In words: EP4 bioassay: PGE2 induced Ca++ flux (FLIPR). It counts as cell-based. The settings on record: PGE2 25 pm; read-out: IC50 (pM) @ PGE2 25 pm Cellular Potency in EP4 assay. Here is the method:
The ability of anti-PGE2 antibody to inhibit cellular response of PGE2 in vitro was determined in a Ca^++ flux assay in HEK293 Gα16 cells (Abbott Bioresearch Center, Worcester, Mass.) stably transfected with human EP4 receptor. In brief, an expression plasmid encoding one of the four human PGE2 receptors, EP4, and an expression plasmid encoding Gα16, were co-transfected into human embryonic kidney cell line 293 cells (ATCC# CRL1573, Manassas, Va.). The stable clones co-expressing both human EP4 and Gα16 protein were selected using standard methods (Joseph Sambrook and David W. Russell. Molecular Cloning: A Laboratory Manual Publisher. Published by Cold Spring Harbor Laboratory Press, 2001) and used for the EP4 bioassay. The HEK293 Gα16 cells were plated in black/clear poly-D-lysine plates (Corning #3667, Corning, N.Y.) and incubated with a Ca^++-sensitive dye (Molecular Devices, Sunnyvale, Calif.) for 90 minutes. Stock PGE2 (in 200 proof ethanol) was diluted with FLIPR buffer [containing 1×HBSS (Invitrogen Carlsbad, Calif.), 20 mM HEPES (Invitrogen Carlsbad, Calif.), 0.1% BSA (Sigma, St. Louis, Mo.) and 2.5 mM Probenecid (Sigma, St. Louis, Mo.)]. Anti-PGE2 antibodies or isotype matched control antibodies were also pre-diluted in FLIPR buffer. 25 μl of PGE2 or pre-incubated PGE2/antibody mixture was added to the wells pre-plated with cells. The dose response of PGE2 was determined on a serial titration of PGE2 and using FLIPR1 or Tetra (Molecular Devices, Sunnyvale, Calif.) and EC50 was determined using GraphPad Prism 5 (GraphPad Software, La Jolla, Calif.). […] Ca^++ flux was monitored using FLIPR1 and data was analyzed using GraphPad Prism 5 (GraphPad Software, La Jolla, Calif.).

Like-named read-outs stand apart in the source and are kept apart here.

By EC50 is commonly meant the midpoint of the concentration-response curve. Read a low EC50 as greater potency. A word on the IC50: it is the midpoint of a concentration-inhibition curve.

B1: 2B5-7.0: recombinant anti-PGE2 antibody from solved 2B5 sequence; VH SEQ ID NO 40, VL SEQ ID NO 41 (antibody, V domains shown)
VH: QVQLQQSGPELVRPGSSVKISCKASGYTFTKYWLGWVKQRPGHGLEWIGDIYPGYDYTHYNEKFKDKATLTVDTSSSTAYMQLSSLTSEDSAVYFCARSDGSSTYWGQGTLVTVSA
VL: DVLMTQTPLSLPVSLGDQASISCTSSQNIVHSNGNTYLEWYLQRPGQSPKLLIYKVSNRFSGVPDRFSGSGSGTVFTLKISRVEAEDLGVYYCFQVSHVPYTFGGGTKLEIKR
For the molecule B1, in data set [1], a half-maximal effect (EC50) was put at 2.46 nM and the “ability to bind PGE2 in ELISA” value is “potently bound to PGE2”. In data set [2], the “PG Selectivity in Biotin-PGE2 Competition ELISA (CRI %) PGA2” value stood at 0.11%, the “PG Selectivity in Biotin-PGE2 Competition ELISA (CRI %) PGD2” value is listed as less than 0.01% and the “PG Selectivity in Biotin-PGE2 Competition ELISA (CRI %) PGE1” value is 27%.

B2: 2B5-9.0: recombinant anti-PGE2 antibody from solved 2B5 sequence; VH SEQ ID NO 44, VL SEQ ID NO 45 (antibody, V domains shown)
VH: QVQLQQSGPELVRPGSSVKISCKASGYTFTKYWLGWVKQRPGHGLEWIGDIYPYGDYTHYNEKFKDKATLTVDTSSSTAYMQLSSLTSEDSAVYFCARSDGSSTYWGQGTLVTVSA
VL: DVLMTQTPLSLPVSLGDQASISCTSSQNIVHSNGNTYLEWYLQRPGQSPKLLIYKVSNRFSGVPDRFSGSGSGTVFTLKISRVEAEDLGVYYCFQVSHVPYTFGGGTKLEIKR
As for B2, in data set [1], a half-maximal response (EC50) required 3.04 nM and the “ability to bind PGE2 in ELISA” value is listed as “potently bound to PGE2”. Further, in data set [2], the “PG Selectivity in Biotin-PGE2 Competition ELISA (CRI %) PGA2” value is on record as 0.24%, the “PG Selectivity in Biotin-PGE2 Competition ELISA (CRI %) PGD2” value was less than 0.01% and the “PG Selectivity in Biotin-PGE2 Competition ELISA (CRI %) PGE1” value is reported as 23%.

B3: Hu2B5.5: humanized 2B5-8.0; VH SEQ ID NO 68, VL SEQ ID NO 69 (antibody, V domains shown)
VH: EVQLVQSGAEVKKPGASVKVSCKASGYTFTKYWLGWVRQAPGQGLEWMGDIYPGYDYTHYNEKFKDRVTLTTDTSTSTAYMELRSLRSDDTAVYYCARSDGSSTYWGQGTLVTVSS
VL: DVVMTQTPLSLPVTPGEPASISCTSSQNIVHSNGNTYLEWYLQKPGQSPQLLIYKVSNRFSGVPDRFSGSGSGTDFTLKISRVEAEDVGVYYCFQVSHVPYTFGGGTKVEIKR
Consider B3, for which the “migration in capillary zone electrophoresis” value in data set [3] was “migrated more basic”. The molecule further came in with an EC50 in data set [4] of 37 pM. Moreover, the IC50 in data set [5] worked out at 47 pM.

B4: L21: human anti-PGE2 antibody from PROfusion mRNA display; VH SEQ ID NO 33, VL SEQ ID NO 36 (antibody, V domains shown)
VH: EVQLVQSGSELKKPGTSVKVSCKASGYTLTTYAMNWVRQAPGQGLEWMGWIGTSTGNPTYAQGFTGRFVFSLDTSVNTAHLQIYSLKAEDTALYYCARSSLTRPADYWGQGTLVTVSS
VL: QSGLTQPPSVSGAPGQRVTISCFGSSSNIGAGYDVHWYQQLPGAAPKLLIFGNNNRPSGVPDRFSGSKSGTSASLAITGLQAEDEADYYCQSCDSSLSGAVFGTGTKVTVL
B4: the “Binding to PGE2-Biotinamide (OD450)” value came out at 0.08 in data set [1] (Biotin-PGE2 0 μM); 0.10 in data set [1] (Biotin-PGE2 0.1 μM); 0.16 in data set [1] (Biotin-PGE2 0.3 μM); 0.25 in data set [1] (Biotin-PGE2 1 μM); 0.32 in data set [1] (Biotin-PGE2 2 μM); 0.31 in data set [1] (Biotin-PGE2 5 μM). Also, the “Binding to PGE2-Biotinamide (OD450)” value in data set [1] (Biotin-PGE2 15 μM) is reported as 0.41; in data set [1] (Biotin-PGE2 45 μM, IgG-containing COS7 media) it was 0.46.

The values are drawn from patent US8624002B2, “Prostaglandin E2 binding proteins and uses thereof” (AbbVie, Inc., priority 2008, dated 2014).
